B1: HDV Ribozyme (parent)
chain: GGCCGGCAUGGUCCCAGCCUCCUCGCUGGCGCCGGCUGGGCAACAUUCCGAGGGGACCGUCCCCUCGGUAAUGGCGAAUGGGACCCA

Variants of: B1
Assay: self-cleavage, relative activity (ratio to wild type); higher = more cleavage; co-transcriptional
GGCCGGCAUGGUCCCAGCCUCCUCGCUGGCGCAGGCUGGGCAACAUUCCGACGGGACCGUCCCCUCGGUAAUGGCGAAUGGGACCCA [C33A G52C] gave a self-cleavage of 0.284. GGCCGGCAUGGUCCCAGCCUCCUAGCUGGCGCCGGCUGGGCAACAUUCCAAGGGGACCGUCCCCUCGGUAAUGGCGAAUGGGACCCA [C24A G50A] gave a self-cleavage of 0.688. With GGCCGGCAGGGUCCCAGCCUCCUCGCUGGCGCCGGCUGGGCAACAUUCCGAGGGGACCGUCCCCUCGGUAAUGGCGAAUGGGGCCCA [U9G A83G] the self-cleavage was 0.525. GGCCGGCAUGUUCCCAGCCUCCUCGCUGGCGCCGGCUGGGCAACAUUCCGAGGGGACCGUCCCCGCGGUAAUGGCGAAUGGGACCCA [G11U U65G] gave a self-cleavage of 0.542. With GGCCGGCUUGGUCCCAGUCUCCUCGCUGGCGCCGGCUGGGCAACAUUCCGAGGGGACCGUCCCCUCGGUAAUGGCGAAUGGGACCCA [A8U C18U] the self-cleavage was 0.631. With GGCCGGCAUGGUCCCAGCCUCCUCGCUGGCGCCGGCUGGGAAACAUUCCGAGGGGACCGUCCCCUCGGUAAUGGAGAAUGGGACCCA [C41A C75A] the self-cleavage was 0.208. Variant GGCCGGCAUGGUCCCAGCCUCCUCGAUGGCGCCGGCUGGGCAACAUUCCGAGGGGACCGUCCCCUCGGUAAUGGCGCAUGGGACCCA [C26A A77C] has a self-cleavage of 0.266. Work on GGCCGGCAUGGUCCCAGCCUCCUCGCUGGGGCCGGCUGGGCAACAUUCCGAGGGGACCGUCCCCUCGGUAAUGGCGAAUGGUACCCA [C30G G82U] yielded a self-cleavage of 0.0627. In the case of GGCCGGCAUCGUCCCAGCCUCCUCGCUGGCGCCGGCUGGGCAACAUUCCAAGGGGACCGUCCCCUCGGUAAUGGCGAAUGGGACCCA [G10C G50A], the self-cleavage is reported as 0.997. In the case of GGCCGGCAUGGUCCCAGCCUCCUCGCUGGCGCCGGCUGGGCAACACUCCGAGGGGACCGUCCCCUCGGUAAAGGCGAAUGGGACCCA [U46C U72A], the self-cleavage is reported as 0.504. GGCCGGCAUGGUCCCAGCCUCCUCGCUGGCGCCGGCUGGGCAACAUGCCGAGGGGACCGUCCCCUCGGUAAUGGCCAAUGGGACCCA [U47G G76C] showed a self-cleavage of 0.727. In the case of GGCAGGCAUGGUCCCAGCCUCCUCGCUGGCGCCGGCUGGGCAACAUUCCGAGGGGACCGUCCCCUCGGUAAUGGCGAAUGGGAACCA [C4A C84A], the self-cleavage is reported as 0.192. Variant GGCCGGCAUGGUCCCAUCCUCCUCGCUGGCGCCGGCUGGGCUACAUUCCGAGGGGACCGUCCCCUCGGUAAUGGCGAAUGGGACCCA [G17U A42U] has a self-cleavage of 0.089. For GGCCGGCAUGGUCCCGGCCUCCUCGCUGGCGCCGGCUGGGCAACAUUCCGAGGGGACCGUCCCCUCGGUAAUGGCGAAGGGGACCCA [A16G U79G], the self-cleavage was 0.598. For GGCCGGCAUAGACCCAGCCUCCUCGCUGGCGCCGGCUGGGCAACAUUCCGAGGGGACCGUCCCCUCGGUAAUGGCGAAUGGGACCCA [G10A U12A], the self-cleavage was 0.0733. With GGCCGGCAUGGUCCCAGCCUCCUAGCUGGCGCUGGCUGGGCAACAUUCCGAGGGGACCGUCCCCUCGGUAAUGGCGAAUGGGACCCA [C24A C33U] the self-cleavage was 0.363. GGCCGGUAUGGUCCCAGCCUCCUCGCUGGCGCCGGCUGGGCAACAUUCCGAGGGGACCGUCCCCUCGGUAAUGGCGAAUGGGACCUA [C7U C86U] gave a self-cleavage of 0.678. For GGCCGGCAUGGUCCCAGCGUCCUCGCUGGCGCCGGCUGGGCAACAUUCCGAGGGGAUCGUCCCCUCGGUAAUGGCGAAUGGGACCCA [C19G C57U], the self-cleavage was 0.0528. GGCCGGCUUGGUCCCAGCCUCCUCGCUGGCGCCGGCUGGGCAACAUUCCGAGGGAACCGUCCCCUCGGUAAUGGCGAAUGGGACCCA [A8U G55A] gave a self-cleavage of 0.749. With GGCCGGCAUGGUCCCAGCCUCCUCGCUAGCGCCGGGUGGGCAACAUUCCGAGGGGACCGUCCCCUCGGUAAUGGCGAAUGGGACCCA [G28A C36G] the self-cleavage was 0.0519. With GGCCGGCAUGGUCCCAGCCUCCACGCUGGCGCCGGCUGGGCAACAUUGCGAGGGGACCGUCCCCUCGGUAAUGGCGAAUGGGACCCA [U23A C48G] the self-cleavage was 0.898. In the case of GGCCGGCAUGGUCCCAGCCUCCUCGCUGGCGCCGGAUGGGCAACAUUCCGAGGGGACCGUCCCCUCGGAAAUGGCGAAUGGGACCCA [C36A U69A], the self-cleavage is reported as 0.0755. With GGCCGGCAUGGUCCCACUCUCCUCGCUGGCGCCGGCUGGGCAACAUUCCGAGGGGACCGUCCCCUCGGUAAUGGCGAAUGGGACCCA [G17C C18U] the self-cleavage was 0.0923. GGCCGGCAUGGUCCCAGCGUCCUCGCUGGCGCCGGCUGGGCAACAUUCCGAGGAGACCGUCCCCUCGGUAAUGGCGAAUGGGACCCA [C19G G54A] gave a self-cleavage of 0.116. Work on GGCCGGCAUGGUCCCAGCCUGUUCGCUGGCGCCGGCUGGGCAACAUUCCGAGGGGACCGUCCCCUCGGUAAUGGCGAAUGGGACCCA [C21G C22U] yielded a self-cleavage of 0.0519. Work on GGCCGGCAUGGUCCCAGCCUCCUCGCUGGCGCCGGCUGGGCAACAUUCCGAGGGGACCGUCCUCUCGGUAAUGGCCAAUGGGACCCA [C63U G76C] yielded a self-cleavage of 0.997. Variant GGCCAGCAUGGUCCCAGCCUCCUCGCUGGCGCCGGCUGGGCAGCAUUCCGAGGGGACCGUCCCCUCGGUAAUGGCGAAUGGGACCCA [G5A A43G] has a self-cleavage of 0.131. GGCCGGCGUGGUCCCAGCCUCCUCGCUGGCGCCGGCUGGGCAACCUUCCGAGGGGACCGUCCCCUCGGUAAUGGCGAAUGGGACCCA [A8G A45C] showed a self-cleavage of 0.332. In the case of GGCCGGCAUGGUCCCAGCCUCCUCGCUGGCGCCGGUUGGGCAACAUUCCGAGGGGACCGUCCCCUCGGUAAAGGCGAAUGGGACCCA [C36U U72A], the self-cleavage is reported as 0.324. GGCCGGCAUGGUCCCAGCCUCCUCGCUGGCGCCGGCUGGGCAACAUUCCGAGGGGACCGUCCCCUCAGUAAUGGCGAAUGCGACCCA [G67A G81C] showed a self-cleavage of 0.117. GGCCGGCAUGGUCCCAGCCUCCUCGCUGGCGCCGGCUGAGCAACAUUCCGAGGGGACCGUCUCCUCGGUAAUGGCGAAUGGGACCCA [G39A C62U] showed a self-cleavage of 0.508. GGCCGGCAUGGUCCCAGCCUCCUCGCUGGCGCCGGCUGGGCAACAUUGUGAGGGGACCGUCCCCUCGGUAAUGGCGAAUGGGACCCA [C48G C49U] showed a self-cleavage of 1.08.

— the RNAGym collection of RNA variant scans (doi:10.7554/elife.80360)
